Patent US7422884B2, “Feedback-resistant mevalonate kinases” (DSM IP Assetts B.V., priority 2003, dated 2008)

Tests used:
[1] = system: His6-tagged Paracoccus zeaxanthinifaciens mevalonate kinase; experiment: Feedback inhibition of mevalonate kinase by downstream products of the pathway; format: biochemical; details: 138 μM of the inhibitor; wild-type His6-tagged enzyme
Experimental: (§1) Enzymatic assays for measuring mevalonate kinase activity have been described, e.g., by Popák (Meth. Enzymol. 15, 393-, 1969), Gibson et al. (Enzyme 41, 47-55, 1989), Hinson et al. (J. Lipid Res. 38, 2216-2223, 1997), Schulte et al. (Anal. Biochem. 269, 245-254, 1999), or Cho et al. (J. Biol. Chem. 276, 12573-12578, 2001). For preparing mevalonate as substrate, 130 mg of DL-mevalonate lactone (FLUKA Chemie AG, Buchs, Switzerland) were dissolved in 5.5 ml of 0.2 M KOH and incubated for 15 min at 50° C. The solution was then adjusted to pH 7.0 by addition of 0.1 M HCl at room temperature (RT). Except if stated otherwise (see Example 3), the assay mixture consists of 100 mM K2HPO4/KH2PO4 (pH 7.0), 1 mM ATP, 2 mM MgCl2, 1 mM mevalonate, 0.5 mM phosphoenolpyruvate (PEP), 0.32 mM NADH, 20 U/ml pyruvate kinase and 27 U/ml lactate dehydrogenase (Sigma-Aldrich, St. Louis, Mo., USA). FPP, GGPP, IPP, DMAPP and GPP tested as inhibitors in the assay mixtures (at concentrations of 0-100 μM) were all purchased from Sigma. Upon addition of purified (His6-tagged) mevalonate kinase, enzymatic reaction reflected by consumption of NADH was followed by photometric measurement at 340 nm. One unit (1 U) of mevalonate kinase activity catalyzes the phosphorylation of 1 μmol of mevalonate per min.
(§2) Mevalonate was prepared as described in Example 2. The assay mixture consists of 100 mM K2HPO4/KH2PO4 (pH 7.0), 1 mM ATP, 1 mM mevalonate, 2 mM MgCl2, 0.5 mM phosphoenolpyruvate (PEP), 0.32 mM NADH, 20 U/ml pyruvate kinase and 27 U/ml lactate dehydrogenase (Sigma-Aldrich, St. Louis, Mo., USA). FPP, GGPP, IPP, DMAPP and GPP tested as inhibitors in the assay mixtures were all purchased from Sigma. 92 μM FPP or 17.6 μM GGPP were used for inhibition assays performed with the mevalonate kinase mutants. For the comparison of inhibition by FPP, GGPP, IPP, DMAPP and GPP, 138 μM of these intermediates were added (Example 9). Upon addition of purified (HiS6-tagged) mevalonate kinase, enzymatic reaction reflected by consumption of NADH was followed by photometric measurement at 340 nm.
Different mevalonate kinases were previously reported to be sensitive to feedback inhibition by the following downstream products of the mevalonate pathway: IPP, DMAPP, GPP, FPP, GGPP, phytyl-PP, farnesol, dolichol phosphate.

[2] = system: Paracoccus zeaxanthinifaciens mevalonate kinase; experiment: Mevalonate kinase activity assay (NADH-coupled photometric assay, specific activity of mutants); format: biochemical; details: purified His6-tagged enzyme, 1 mM ATP, 1 mM mevalonate, pH 7.0
Experimental: as §1, §2

[3] = system: Paracoccus zeaxanthinifaciens mevalonate kinase; experiment: Feedback resistance of mevalonate kinase mutants to FPP or GGPP; format: biochemical; details: feedback inhibitor FPP, 92 μM; relative to wild-type
Experimental: “Feedback resistance” shall mean any increase in resistance to “feedback inhibition” (as defined above). Feedback resistance can be analyzed in different ways known to those skilled in the art. An appropriate approach shall be described here shortly: mevalonate kinase activity is measured in an activity assay similar to the one described in Example 2 at non-saturating concentrations of ATP (or of another phosphate donor) and mevalonate (or mevalonate analogue), i.e., at ATP (or phosphate donor) and mevalonate (or mevalonate analogue) concentrations around which the reaction rate is sensitive to changes of these substrate concentrations, e.g. at concentrations around the respective Km values of the enzyme under investigation for these substrates. The activities of both wild-type mevalonate kinase and of a variant/mutant of this enzyme are measured under otherwise identical conditions both in the absence and presence of a relevant concentration of a feedback inhibitor, i.e., at a concentration of feedback inhibitor affording significant inhibition of the wild-type mevalonate kinase. […] Feedback resistance (%) is calculated as follows: if a and b are the measured mevalonate kinase activities of the wild-type enzyme in the absence and presence, respectively, of the feedback inhibitor (e.g., FPP), and if c and d are the measured mevalonate kinase activities of the mutant enzyme in the absence and presence, respectively, of the same feedback inhibitor, then % feedback resistance is: % resistance=100·((d/c)−(b/a))/(1−(b/a)) […]
Feedback resistance (%) is calculated as follows: if a and b are the measured mevalonate kinase activities of the wild-type enzyme in the absence and presence, respectively, of the feedback inhibitor (in this case, FPP), and if c and d are the measured mevalonate kinase activities of the mutant enzyme in the absence and presence, respectively, of the same feedback inhibitor, then % feedback resistance is: % resistance=100·((d/c)−(b/a))/(1−(b/a))

[4] = pH 8

Molecule	Inhibition of mevalonate kinase activity [1] [%]	Specific activity (% of wild-type) [2]	Feedback resistance (%) [3] [%]	Solubility / tendency to aggregate [4]
C=C(C)CCOP(=O)(O)OP(=O)(O)O [IPP, isopentenyl diphosphate]	16.3	–	–	–
CC(C)=CCOP(=O)(O)OP(=O)(O)O [DMAPP, 3,3-dimethylallyl diphosphate]	14.7	–	–	–
CC(C)=CCC/C(C)=C/CC/C(C)=C/CC/C(C)=C/COP(=O)(O)OP(=O)(O)O [GGPP, geranylgeranyl diphosphate]	98	–	–	–
CC(C)=CCC/C(C)=C/COP(=O)(O)OP(=O)(O)O [GPP, geranyl diphosphate]	18.6	–	–	–
G47D (protein, listed as Paracoccus zeaxanthinifaciens) MSTGRPEAGAHAPGKLILSGEHSVLYGAPALAMAIARYTEVWFTPLDIGEGIRTTFANLSGGATYSLKLLSGFKSRLDRRFEQFLNGDLKVHKVLTHPDDLAVYALASLLHDKPPGTAAMPGIGAMHHLPRPGELGSRTELPIGAGMGSSAAIVAATTVLFETLLDRPKTPEQRFDRVRFCERLKHGKAGPIDAASVVRGGLVRVGGNGPGSISSFDLPEDHDLVAGRGWYWVLHGRPVSGTGECVSAVAAAHGRDAALWDAFAVCTRALEAALLSGGSPDAAITENQRLLERIGVVPAATQALVAQIEEAGGAAKICGAGSVRGDHGGAVLVRIDDAQAMASVMARHPDLDWAPLRMSRTGAAPGPAPRAQPLPGQG	–	121 % of wild-type	32	–
K93E (protein, listed as Paracoccus zeaxanthinifaciens) MSTGRPEAGAHAPGKLILSGEHSVLYGAPALAMAIARYTEVWFTPLGIGEGIRTTFANLSGGATYSLKLLSGFKSRLDRRFEQFLNGDLKVHEVLTHPDDLAVYALASLLHDKPPGTAAMPGIGAMHHLPRPGELGSRTELPIGAGMGSSAAIVAATTVLFETLLDRPKTPEQRFDRVRFCERLKHGKAGPIDAASVVRGGLVRVGGNGPGSISSFDLPEDHDLVAGRGWYWVLHGRPVSGTGECVSAVAAAHGRDAALWDAFAVCTRALEAALLSGGSPDAAITENQRLLERIGVVPAATQALVAQIEEAGGAAKICGAGSVRGDHGGAVLVRIDDAQAMASVMARHPDLDWAPLRMSRTGAAPGPAPRAQPLPGQG	–	109 % of wild-type	33	–
WT: wild-type His6-tagged mevalonate kinase of Paracoccus zeaxanthinifaciens, SEQ ID NO:15 (protein, His6 tag; His6-Paracoccus zeaxanthinifaciens) MRGSHHHHHHSTGRPEAGAHAPGKLILSGEHSVLYGAPALAMAIARYTEVWFTPLGIGEGIRTTFANLSGGATYSLKLLSGFKSRLDRRFEQFLNGDLKVHKVLTHPDDLAVYALASLLHDKPPGTAAMPGIGAMHHLPRPGELGSRTELPIGAGMGSSAAIVAATTVLFETLLDRPKTPEQRFDRVRFCERLKHGKAGPIDAASVVRGGLVRVGGNGPGSISSFDLPEDHDLVAGRGWYWVLHGRPVSGTGECVSAVAAAHGRDAALWDAFAVCTRALEAALLSGGSPDAAITENQRLLERIGVVPAATQALVAQIEEAGGAAKICGAGSVRGDHGGAVLVRIDDAQAMASVMARHPDLDWAPLRMSRTGAAPGPAPRAQPLPGQG	–	100 % of wild-type	0	pronounced tendency to aggregate/precipitate
